Columns and labels:
[1] = biological target: T1, human HER2 (human epidermal growth factor receptor 2) (human, UniProt P04626 23-1255); test: cell-based or functional assay
[2] = biological target: T1, human HER2 (human epidermal growth …); test: cell-based or functional assay; remark: listed apart in the source
[3] = biological target: T2, human HER2-Domain II-his protein (human, UniProt P04626 196-319); test: ELISA, plate coated with human HER2-Domain II-his
T2 construct: also called HER2 domain II fragment (Ser196-Asn319); not shown: his tag
Experimental: (§1) X axis is values of antibody concentration in nanomolar. Y axis is values of OD at 450 nm.
(§2) Binding of anti-HER2 VHH-Fc clones to different domains of human HER2 ECD was determined by ELISA binding assays using his-tagged HER2 domain fragments. Human HER2 domain IV fragment (Pro489-Cys630) was purchased from Sinobiological, domain II+III+IV fragment (Ser196-Cys630) & domain II fragment (Ser196-Asn319) were made.

[4] = biological target: T3, human HER2-Domain IV-his protein (human, UniProt P04626 489-630); test: ELISA, plate coated with human HER2-Domain IV-his
T3 construct: also called HER2 domain IV fragment (Pro489-Cys630); not shown: his tag
Experimental: as §1, §2

[5] = biological target: T1, human HER2 (human epidermal growth …); test: flow cytometry whole cell binding, CHO-h-HER2 stable cells
Experimental: (§3) Binding of bivalent anti-HER2 VHH-Fc clones to human HER2 stably transfected CHO cells (CHO-h-HER2 stable cells) was determined by flow cytometry whole cell binding (WCB) assays. Briefly, antibodies were incubated at different concentrations with CHO-h-HER2 stable cells (0.2×10⁶/ml) in 100 μl/well in 96-well plates in FACS buffer (PBS with 1.0% FBS) for 30 min. After washing, Alexa Fluor 488 conjugated anti-human IgG Fc secondary antibody (Alexa Fluor® 488 AffiniPure Goat Anti-Human IgG, Fcγ fragment specific, Jackson labs, 1:750 dilution) was added, and incubated for 30 min. After washing, Median Fluorescence Intensity (MFI) was measured using CytoFlex (Beckman Coulter) by gating live cell population with FITC channel. Whole cell binding of VHH-Fc clones to endogenously expressed HER2 in human cancer cells was also determined using N87 (Stomach cancer cell line) and SKBR3 (Breast cancer cell line) cells, both of which are cancer cells with high HER2 expressions.

[6] = biological target: T1, human HER2 (human epidermal growth …); test: flow cytometry whole cell binding, N87 cells (endogenous HER2)
Experimental: as §3

- IC50 (nM) in AU-565 cells, anti-proliferation [2]: 0.84 nM
- binding result [3]: no binding
- binding result [4]: no binding
- EC50 [5]: 2090 pM
- EC50 [6]: 3140 pM
B1: anti-HER2 VHH-Fc clone 11D5 (bivalent VHH-Fc of Example 2) (antibody, V domains shown)
VH: QVQLVESGGGVVQPGRSLRLSCAASGSTFSSLAMHWVRQAPGKERELVAAISYSGGYTYYADSVKGRFTISRDNSKNTLYLQMNSLRAEDTAVYYCAASSIFIGAYDYWGQGTLVTVSS
notes: not shown: human IgG1 Fc region: hinge region and constant domains CH2 and CH3
- IC50 (nM) in AU-565 cells, killing in the presence of PBMCs [1]: 0.38 nM
- IC50 (nM) in SKBR3 cells, killing in the presence of PBMCs [1]: 0.29 nM

Source: patent US20260176373A1 (BRIGHT BIOLOGICS, published 2026)
